Entries after “also recorded” stand apart in the source; their conditions may differ. Positions of bridges follow the written chain, without caps; N, C: chain ends. Non-standard residues stand in square brackets, D forms with d. Chains are numbered I, II in the order given. *: point of attachment. Dolaproine = CO[C@@H]([C@@H]1CCCN1)[C@@H](C)C(=O)O; Dil = CC[C@H](C)[C@H](NC)[C@@H](CC(=O)O)OC; X1 = C[C@@H](N*)[C@@H](O)c1ccccc1; NMeV = CN[C@H](C(=O)O)C(C)C; Mpa = O=C(O)CCS
Legend:
[1] = test system: HeLa cells; assay: Anti-proliferation Assay (2 hours treatment at pH 7.4 or 5.0, 72 hours growth, MTT)
Method: FIG. 3A, FIG. 3C and FIG. 3E show HeLa cells treated with pHLIP(WT)-MMAE, pHLIP(D25E)-MMAE, and MMAE(linker), respectively. FIG. 3B, FIG. 3D and FIG. 3F show MDA-MB-231 cells treated with pHLIP(WT)-MMAE, pHLIP(D25E)-MMAE, and MMAE(linker), respectively. Black columns represent cells treated at pH 7.4 and cells treated at low pH are shown in grey. For each condition, 3,000 cells/well (96-well plate) were seeded, allowed to adhere overnight, treated for 2 hours, washed once with media and grown for 72 hour in complete medium at physiologic pH. Cell viability was assessed with the MTT assay. All measurements were normalized to the media control (0 μM, pH 7.4), as 100% cell viability. Results are shown as mean±SD (n=6-9).
HeLa cells treated with pHLIP(WT)-MMAF (FIG. 9A), pHLIP(D25E)-MMAF (FIG. 9B), pHLIP(P20G)-MMAF (FIG. 9C), and pHLIP(R11Q)-MMAF (FIG. 9D). Circles represent cells treated at pH 7.4 and squares represent cells treated at pH 5.0. Results are shown as the mean±SEM (n=6-9).
Anti-proliferation Assay. HeLa and MDA-MB-231 cells were seeded in 96-well plates at a density of 3,000 cells/well and incubated overnight. Before treatment, construct aliquots were solubilized in an appropriate volume of DMEM without FBS (pH 7.4)—so that upon pH adjustment the desired treatment concentration is obtained—and gently sonicated for 30-60 seconds using a bath sonicator (Branson Ultrasonics). After removal of cell media, this treatment solution was added to each well and incubated at 37° C. for 5-10 minutes. The pH was then adjusted to the desired value using a pre-established volume of DMEM, pH 2.0 buffered with citric acid (final volume=50 μL) and the plate was incubated at 37° C. for 2 hours. After treatment, the media was removed, cells were washed once with 100 μL of complete DMEM, and 100 μL of complete medium was added to each well before returning the plate to the incubator. Treatment solutions were collected and their pH values measured using a micro-combination pH probe (Microelectrodes, Inc.). […] Cell viability was determined after 72 hours using the colorimetric MTT assay. Briefly, 10 μL of a 5 mg/mL MTT stock solution was added to the treated cells and incubated for 2 hours at 37° C. The resulting formazan crystals were solubilized in 200 μL DMSO and the absorbance measured at 580 nm using an Infinite 200 PRO microplate reader (Tecan). Cell viability was calculated against control cells treated with media at physiologic pH.
Inhibition of Cell Proliferation. The ability of pHLIP to move MMAE across the cell membrane and to inhibit cancer cell proliferation in concentration and pH-dependent manners was evaluated. Cell treatments for both pHLIP(WT)-MMAE and pHLIP(D25E)-MMAE constructs were carried out with conjugate concentrations ranging from 1.25 to 10 μM at either pH 7.4 or 5.0. After a 2-hour incubation at 37° C., the treatment media was replaced by fresh media, and cells were grown for an additional 72 hours at normal pH before assessing cell viability using the MTT assay. […] This treatment protocol is quite stringent when compared to the typical multi-days exposure treatments used with free drugs (FIG. 6A and FIG. 6B).

[2] = Construct Stability HPLC in Cell Media; type: physicochemical; settings: 10 μM, 2 h at pH 5.0 and 37° C.
Method: (§1) FIG. 8A, FIG. 8B, and FIG. 8C show Purity check and Chemical stability of pHLIP-MMAE conjugates. (FIG. 8A) and (FIG. 8B): HPLC traces of pHLIP(WT)-MMAE and pHLIP(D25E)-MMAE, respectively: Purified conjugates (upper panels), 10 μM of conjugate in cell media (middle panels) and after incubation in cell media for 2 h at pH 5.0 and 37° C. (lower panels). The small peak observed around 27 min in (FIG. 8B) upper panel corresponds to some residual free pHLIP (<15%), which is known to not be cytotoxic (FIG. 7). (FIG. 8C) HPLC traces of Alexa750-pHLIP(WT)-MMAE: Purified conjugate (upper panel), 10 μM Alexa 750-pHLIP(WT)-MMAE before (upper panel) and after 48 h incubation in mouse serum at 37° C. (lower panel). Purity checks and chemical stability runs were performed on different column and with different flow rate, explaining the difference in retention times and peak broadness (see Experimental Section). […]
(§2) Peptide solutions were incubated at either pH 7.4 or pH 5.0 (37° C. and 5% CO2) and 100 μL aliquots were monitored via RP-HPLC at various time points (Agilent Eclipse XDB-C18 […] 9.4×250 mm; flow rate 2 mL/min; phase A: water 0.01% TFA; phase B: acetonitrile 0.01% TFA; gradient 45 min from 95/5 A/B to 0/100 A/B). […] The stability of Alexa750-pHLIP(WT)-MMAE was determined in mouse serum by solubilizing the construct to incubating it at 37° C. and monitoring via RP-HPLC at specific time points.

[3] = Construct Stability HPLC in Mouse Serum; type: in vitro ADME; settings: 37° C., 48 h
Method: as §1, §2

| Substance | effect on cell proliferation ([1]; pH 7.4, same conditions (1.25 to 10 μM)) | cytotoxicity ([1]; physiological pH, 5 μM) | degradation in cell media by HPLC or mass spectroscopy [2] | stability in serum [3] |
| --- | --- | --- | --- | --- |
| I: H-AAEQNPIYWARYADWLFTTPLLLLDLALLVDADEGTCG-OH / II: [Mpa][NMeV]V[Dil][Dolaproine]-X1 (disulfide I:37-II:1) [pHLIP(WT)-MMAE] | no or a moderate effect on cell proliferation | only marginal cytotoxicity | No significant degradation; also recorded: no degradation products are observed | stable in serum |
| I: H-AAEQNPIYWARYADWLFTTPLLLLELALLVDADEGTCG-NH2 / II: [Mpa][NMeV]V[Dil][Dolaproine]-X1 (disulfide I:37-II:1) [pHLIP(D25E)-MMAE] |  |  | No significant degradation; also recorded: no degradation products are observed |  |

Source: patent US20170267727A1, “Conjugates of pH Low Insertion Peptide and Monomethyl Auristatins in the Treatment of Solid Tumors” (Lehigh University, priority 2016, published 2017)
